{"source": "paper PMC6768651", "about": "“A ubiquitin-like domain controls protein kinase D dimerization and activation by trans-autophosphorylation” (The Journal of Biological Chemistry, 2019)", "parents": {"B1": {"name": "DKF-1 ULD (DKF-1^1–94) [C. elegans] / Atto488-labeled DKF-1 ULD^R42C [modified: Atto488 (maleimide-conjugated) on cysteine 42; Atto488 (maleimide-conjugated) on cysteine 42] [C. elegans] (parent complex)", "chain 1": "MDGSQGSTDYGDHVVLRYGGTREMVPLIRHEQMLDMLMERARQIVQGFGNLDTRNMYLFRHEYNSPTLLYPITSASQITSGSILEIILVDRTEA", "chain 2": "B1 chain 1 with R42C"}}, "note": "Positions count from the first letter of the chain named. Names may count otherwise.", "data": [{"variants_of": "B1", "experiment": "fluorescence anisotropy; highest titration point: ULD F59E about 27 µM; parent value is the highest ULD WT point, about 20 µM; parent: 0.024; read off a plot", "values": [{"variant": "chain 1 MDGSQGSTDYGDHVVLRYGGTREMVPLIRHEQMLDMLMERARQIVQGFGNLDTRNMYLERHEYNSPTLLYPITSASQITSGSILEIILVDRTEA", "note": "[chain 1 F59E]", "response": "~0.003"}]}]}
